Results: PMC4072508, “Genome-Wide Prediction and Validation of Peptides That Bind Human Prosurvival Bcl-2 Proteins” (PLoS Computational Biology, 2014)

What follows are binders tested against Bcl-xL, Q07817 (assay: peptide SPOT array, c-Myc-tagged receptor at 1 uM or 100 nM, anti-c-Myc-Cy3).
Bcl-xL, Q07817, sequence (Q07817 1-209): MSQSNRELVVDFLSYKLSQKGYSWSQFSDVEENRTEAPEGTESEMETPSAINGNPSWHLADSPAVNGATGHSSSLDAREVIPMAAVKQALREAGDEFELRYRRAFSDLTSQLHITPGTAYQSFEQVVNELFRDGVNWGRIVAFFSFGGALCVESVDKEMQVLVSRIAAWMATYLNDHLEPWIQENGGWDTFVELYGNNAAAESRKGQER

SPOT signal as a fraction of Bim BH3's signal on the same receptor and array	Binder
0.94	YGRLRPRARSLSKALTAINWLTKKFL [MYO15A]
0.29	HNQLTTVPERLSNCSRSLKNLILKNN [TLR7]
0.02	LEKQNNSASDLHEISNEILRIIERTG [GPR112]
0.32	NKQLRKETESDRKIALEAQKKAKVKI
0.03	SGEFREIGTVIDQIAETLWEQVFSKL [ATL2]
0.02	GQISDEVAERLMTIAYESGVNLFDTA [KCNAB1]
1.44	YKGHREIARYLLEQGAQVNRRSAKGN
0.03	QEQLLTLASILREDGKVFDEKVYYTA [HEBP2]
0.03	FPDARDMVRYLGDFADTLGLRVQYNT [FOXRED2]
1.05	NEEGQQFALKDHRLGRTSFRNLKNKR [RIOK2]
0.19	AYTMERSARQIMHTAMKYNLGLDLRT [GLUD2]
0.02	SCMATVIHNPDKALGDQFYKEAIEHC [DPF3]
0.02	LAELQQRSDQLLDMSSTFNKTTQNLA [VAMP5]
0.03	NRQLANMVNNLKEISQEAREGTQGER [TRIM21]
0.02	QAEADHLGKELQSVSAKLQAQVEENE [GOLGA6L1]
0.03	YEHLRQFCLELNGLAVKLQSECHPDT [MOBKL3]
0.04	KPRMSNTSFVIQHFADKVEYKCEGFL [MYO5C]
0.03	SQATGELADLIQQLSEKFGKNLNKDH [TRPC7]
0.17	DLSSTFVSLALRKVLDWPLSARREKG [TTC31]
0.02	TFETQEDAQKILQEAEKLNYKDKKLN [BOLL]

SPOT signal as a fraction of Bim BH3's signal on the same receptor and array	Binder
0.05	KSRLVQQSKADKELADELQERCQRPA [TRIM58]
0.03	EEQLEKLIKKLRKASEGLNSTLKDHI [CCDC76]
0.02	YRDLPLAAVDLSTAGSQLLSNLDEDY [C15orf27]
0.65	AHKARALARLLRQTALAAFSDFKRLQ [FAM43B]
0.22	NKDGKSVSNRDRRLSDNCGGKVLSIT [KIAA0430]
0.97	RYRHGAPAEQLRHLLDMLTTKWATLQ [PLEKHH1]
0.11	GHDATEDARTILELARYFLKHGPKKI [XXXX]
0.1	AHGVRDVSKELVGLAEHAATRLRFTK [TMEM151A]
0.18	GFANHDVVEVLRNALQVVHLTLVRRK [INADL]
0.06	LQETTLVANQLREAASRLKWTTNTGP [MAN2B1]
0.26	AIKSQRMVQNLLSLARKICERVHRSP [ZBED4]
0.08	LGRTGQVCLFDKRGADQHALDQEQRD [ACAP3]
0.03	ASKLKGAAVKLADFGLAIEVEGEQQA [CAMK2A]
0.03	YIEYLKSSDRLDEAAQRLATVVNDER [XAB2]
0.31	NKQLRKETESLRKILLEAQKKAKVKI
1.82	YKGHREIARYDLEQGAQVNRRSAKGN
0.02	SAKLGKSSSLLTQTSEECNGILTEKM [ZNF396]
0.8	LREVRESIRFLRQVGRDWVQRRREAL [CYP46A1]
0.87	KTRADSVANKLGSFSKTLGIKLKKNM [OTUD7A]
1.24	VIKQRRLPDQDSKLADRIQLSGRYYL [RAPGEF2]
